Here are results for seven molecules from patent US20140302063A1 (SECRETARY OF STATE FOR HEALTH, published 2014).

What all share (test): ELISA, inactivated virus
Assay [1] has as its target A/HongKong/1073/99 (H9N2) inactivated viral preparation (Influenza A virus A/HongKong/1073/99 (H9N2)).
Assay [2] deals with A/Indonesia/05/2005 (H5N1) inactivated viral preparation (Influenza A virus A/Indonesia/05/2005 (H5N1)).
For assay [3], the target named is A/mallard/Eng/727/06 (H2N3) inactivated viral preparation (Influenza A virus A/mallard/Eng/727/06 (H2N3)).
The target of assay [4] is A/Duck/Sing-Q/97 (H5N3) inactivated viral preparation (Influenza A virus A/Duck/Sing-Q/97 (H5N3)).
The target in assay [5] is A/HongKong/213/2003 (H5N1) inactivated viral preparation (Influenza A virus A/HongKong/213/2003 (H5N1)).
The target in assay [6] is A/TurkTurk/1/2005 (H5N1) inactivated viral preparation (Influenza A virus A/turkey/Turkey/1/2005 (H5N1)).
For assay [7], the target named is A/Vietnam/119/2004 (H5N1) inactivated viral preparation (Influenza A virus A/Vietnam/119/2004 (H5N1)).

B1: R1a-H6 (VHH)
VHH: QVQLVESGGGLVQAGDSLRLSCTASVLTFSLYRVGWFRQAPGKEREFVAAIDWGDGPTTYADSVKGRFTISRDNAERTAYLQINSLKPEDTAVYYCGAGNTGSSDRSSSYVHWGQGTQVTVSS
Take B1: the EC50 (as a rule, the concentration at which the effect is half-maximal) in assay [1] came to 5.7 µg/mL.

B2: R1a-A5 (VHH)
VHH: QVQLVESGGGLVQPGGSLRLSCSASGSAVLFSTYPMSWYRQAPGKQRELVAAVTTDGSTSYADYAKGRFTISRDNAKNTVYLQMNSLKPEDTAVYYCNARDGFFNRYDYWGQGTQVTVSS
In the case of B2, the concentration giving a half-maximal response (EC50) is 0.15 µg/mL in assay [2]; 0.006 µg/mL in assay [3]; 0.27 µg/mL in assay [4]; 0.27 µg/mL in assay [5]; 0.13 µg/mL in assay [6]; 0.25 µg/mL in assay [7].

B3: R1a-C5 (VHH)
VHH: QVQLVESGGGLVQPGGSLRLSCAASNDIFSFYTMGWYLQAIGKQREPVAVIGNGGNTNYAESVKGRFTISRDGAKNTAYLQMNSLKPEDTAVYYCMASGPGGLNVWGQGTQVTVSS
Consider B3, for which the EC50 in assay [2] was found to be 1.17 µg/mL; in assay [3], 0.06 µg/mL; in assay [4] it was 7.57 µg/mL; in assay [5], 2.9 µg/mL; in assay [6], 0.15 µg/mL; in assay [7], 2.89 µg/mL. The EC50 in assay [1] is 4.48 µg/mL.

B4: R2a-G8 (VHH)
VHH: QLQLAESGGGLVQAGGSLRLSCAASGSTLNNNAIGWFRQAPGKEREGVSCMNSRDGTTNYADSVKGRFTISRDVAKNTVYLQMNSLKPEDTAVYFCAVKGFAPFLIGCPWGKAEYDYWGQGTQVTVSS
On to B4, for which the EC50 worked out at 5.7 µg/mL in assay [2]; 2.5 µg/mL in assay [3]; 9.67 µg/mL in assay [4]; 6.2 µg/mL in assay [5]; 1.93 µg/mL in assay [6]; 3.36 µg/mL in assay [7].

B5: R1a-B6 (VHH)
VHH: QVQLVESGGGLVQPGGSLRLSCAASGSFFSRYRMGWYRQAPGEQRELVASIAYDGSTSYADPVKGRFTISRDNANTVHLQMYSLKPDDTAVYYCNLDPPGILYWGQGTQVTVSS
For the molecule B5, the 50% effective concentration (EC50) in assay [2] came to 0.42 µg/mL; in assay [3] it was 0.102 µg/mL; in assay [4] it was 1.32 µg/mL; in assay [5], 0.37 µg/mL; in assay [6] it was 0.44 µg/mL; in assay [7], 0.82 µg/mL. This molecule had a half-maximal effective concentration (EC50) in assay [1] of 2.3 µg/mL.

B6: R2b-D9 (VHH)
VHH: QVQLVESGGGLVQPGGSLRLSCLASGSAFSLYTMGWYRQAPGNQRELVAAITSGESTNYADSVKGRFTISRDNAKNTVYLQMNSLKPEDTAVYYCNADPLSTGWGQYSYWGQGTQVTVSS
On to B6, for which the concentration giving a half-maximal response (EC50) in assay [2] came to 0.58 µg/mL; in assay [3], 0.06 µg/mL; in assay [4], 5.64 µg/mL; in assay [5], 2.8 µg/mL; in assay [6], 0.76 µg/mL; in assay [7], 1.81 µg/mL.

B7: R2b-E8 (VHH)
VHH: QVQLVESGGGLVQPGGSLRLSCAASGSFFSRYRMGWYRQAPGEQRELVAGITYDDSTNYAGSVKGRFTISRDNAKNTVHLQMNSLKPEDTAVYYCNLNPPGNLYWGQGTQVTVSS
Consider B7, for which the EC50 in assay [2] is 0.8 µg/mL; in assay [3], 0.002 µg/mL; in assay [4] it was 4.98 µg/mL; in assay [5] it was 1.2 µg/mL; in assay [6], 0.89 µg/mL; in assay [7], 1.83 µg/mL. The EC50 in assay [1] was determined as 5.63 µg/mL.
